Measured values from publication doi:10.1101/774737.

Target: dynein intermediate chain (DIC), endogenous, human iPSC-derived motor neurons (human (endogenous in iPSC-derived motor neurons)) (UniProt O14576)
Test: proximity ligation

UniProt O14576, sequence (O14576 whole entry): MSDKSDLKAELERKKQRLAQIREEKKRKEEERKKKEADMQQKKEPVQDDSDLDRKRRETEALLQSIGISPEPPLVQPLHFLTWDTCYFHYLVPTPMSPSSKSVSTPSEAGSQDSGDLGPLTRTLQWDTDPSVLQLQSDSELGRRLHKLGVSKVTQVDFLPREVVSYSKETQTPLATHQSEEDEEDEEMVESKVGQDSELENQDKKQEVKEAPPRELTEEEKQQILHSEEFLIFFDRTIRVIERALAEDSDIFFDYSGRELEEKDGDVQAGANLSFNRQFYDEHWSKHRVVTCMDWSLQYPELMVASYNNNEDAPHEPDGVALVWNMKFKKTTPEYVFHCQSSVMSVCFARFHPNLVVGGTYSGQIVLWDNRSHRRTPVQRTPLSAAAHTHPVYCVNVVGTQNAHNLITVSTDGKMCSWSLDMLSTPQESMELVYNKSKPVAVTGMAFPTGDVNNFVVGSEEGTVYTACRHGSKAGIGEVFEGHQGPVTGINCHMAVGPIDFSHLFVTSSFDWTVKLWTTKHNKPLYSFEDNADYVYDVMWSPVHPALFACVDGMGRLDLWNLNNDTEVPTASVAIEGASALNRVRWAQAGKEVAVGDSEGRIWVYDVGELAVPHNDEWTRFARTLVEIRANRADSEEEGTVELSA

PLA puncta (C9orf72 iPSC-derived MN distal axons, without peptides): 8.9
Substance: CRMP4, endogenous, human iPSC-derived motor neurons (from UniProt Q14195 1-570) (natural protein)
